This series in a line: soluble on expression in E. coli; label from the status in PepcDB or PDB records.
Take “MRKGGKGYFLTIRRDYVTVSYYLKYVKDIPLEFREIIDIFNNHKFEQYTQEQINKYTYTCNVRKIEDIDKYDEKNPTKFHEYTRGEACRCQTYNYFKDDEFIKRAKLKCIYYNMLFTESATVYSRHCPIIDLMHFAVYDIEYPPIFNTIVNITIEEYYYNDVSSVLNNKSDLVTKEKKYQLNDTITEIRDDYFDLWLFLKGETHGKRTLVNLSNDYIVIPSSPINNRDVIASDITRNCGLSQNSPLLKGCNYSSICNIMHPCLRKAMMLPKYMFDLSGKTCGKLGVSLNT”: the “soluble on expression in E. coli” value is given as “not soluble”. In the case of “HHHHHHSSGLVPRGSHMGGTGSGMTPGEAWKKQLNKLGKTQFEQYKRSCILEVDRTHARDSLENGIQNGIAVSRGSAKLRWMEERGYVKPTGIVVDLGCGRGGWSYYAASLKNVKKVMAFTLGVQGHEKPIMRTTLGWNLIRFKDKTDVFNMEVIPGDTLLCDIGESSPSIAVEEQRTLRVLNCAKQWLQEGNYTEFCIKVLCPYTPLIMEELSRLQLKHGGGLVRVPLSRNSTHEMYWVSGTRTDVVGTVSNVSRLLTRRMLNKPQPPTLEDDVILDMGTR” it was “soluble”; in that of “MGNMWGKNRGAVERFQTRREALFDDFKSRSAPASLVNNPRIVKGNETAEQIETTFNEILKLDLIALKSALQTDKYNAYTVLCAFVWRAIDVNSEINCITEVIREAFNTAEALDDNYAQTGEKGQLFGLPFSVKSNFYMENYDVTVGLAKLLEQPKTTTCPMVQFLSDQGAVPFCLTNVPQGLLSYVSSNPIYGTTKNPWDFSRTPGGSSGGEAALLAAGGAAFGIGSDLAGSLRIPAAFCGLVTLKPTQDRLCVTDTHGGLPGRGRLGLSFGFYTRSVKEQEFLLGLIVGRSEYLELCPMSSPAKLEKHIEKDQKLVIGWFVDDGFNPVVPSNRRAVEETVKSLQAKGHQVVELKLADVSEEFPPFAVADMLFRNVMPDNGAYMSEMYAGEQYDEHMKLFIRLVCLKQNFLVSFLLRYGVMPFAKLALSKRLACIGSAYNSDLAACRQNQENTDSYKLQWIRYWKSKKIDALICPSFITPAQPFEYPAQLSNGAFITGLFNMLDVPAGVVPVSPVNQKDVDQLIDGFSTEGDLLLKKQREAARGTTGLPNAVQVVTLPNCEEMCLRVMRLVEESAEGVQRLQWRVGASAAPIDVENTPAGVVSSLEHFERVNLLH”, “not soluble”; in that of “MSLNQKDPVTDDITGGWYEQDIRQLAARGIMQGEGNGKYFPERLVTRAEFATLITRALQLPSGNAKFTDLEQVHPSLRDGINRAASAGIIRGRGDNTFDPNTTITREEAVIMIDRSLKHAGIFAKQVELPFVDQNLIYAKQEVQRVYGFGIVKGNEFNQFVPKGPSQRAHAAAFINRMLSVIEAEGHHHHHH”, “soluble”. Consider “NEDCNTIFGADFSHEGETPGLGAEITRSEFSGQFIGKEIFKEGEFRSVAVVKKGQKAEGKDYVDGISGGTLTSDGVNEMLISSLRPYALYLMNNVKK”, for which the “soluble on expression in E. coli” value is listed as “not soluble”. In the case of “MFHCKGLYMSDQNDKLKNLKTSSMDRRLSIAKASLLAGTRWATASATSMFSSEAEKEKKRKKAMTEQANYLVSEIGKLKGSIVKIGQMMALYGEHFLPEEITQALNTLNNQTVALAWPAIKAHLQEQLGSKLDDLIIDHEPIGTASLAQVHRATRKSDGLELVLKIQYPGVAEAIDSDMSLFKNMLKLTRMVPQTREFDQWFDEVREMMHREVSYDIEAATTRRFAERLKTDPRYAVPQIIDAYCTTKILCMTFERGVPINSPVMLSLPQERRNKLGEASLEIAVREIFEWGEMQTDPNFGNYLVRLGNGTDIQDKIVLLDFGAIRQFDEHLLSVARNLIRAGYNHSNEEMVRAMTGYSFFDSIPESIKPDMAKVFLLATEAFSCPENNPDMPTGLMDEDNRYDWKKSQLHSRVMQQASKSMASRYFSVPPKEFMFISRKFIGAYTFMTVIEAKTNVRRMISHFVKLEHHHHHH” it was “not soluble”; in that of “GPGSMSAAACSWRHTEWTPYEVLNVPPSAPIGDIRAAFKCMALHTHPDKATVTTSARRASGSGATSCSEFPVSFHIVKEASEMLLDPYLRAAYDAARSQALTREVGAISDTYSLMDDFVRVRMDGDESDRQRVHVYQRECRCGGVYEVAVFPEAPAGSGEDEDVPLTYSARTLRCECDSCSLVVEVVA”, “soluble”. With “MGSDKIHHHHHHMVDIHSHIIPGIDDGSNSLETTLNMMSIAKEAGVTKMVATSHYYRGKFENSISVIEKKANELNYTLKEKGVDIDVIPGQEVFIDNYTLKDYKEGIIGTINNTDYMLVEFDMMSLGENAIDTLYELQIKGIKPIIAHPERYTYIQKDIYKINELMDENIYFQVNAGSIEGLFGKTVQKTALKLVEEGVISFIASDAHSAGKRCPGYEKALHDLTKIDKTLAEKFIKNSNLLLENEKIENKVRKLKKKKTFFSFLK”, the “soluble on expression in E. coli” value is reported as “not soluble”. Next, “MTKLVIDTVGPATSVQDAGRHGAQRYGLPPSGAMDRLSLAAANVLVGNSAFAAAIELGPLGAKLSVRDGAVRLALTGAERPAALDGQPLAFNESFTLAEGQILTLGVARGGVFSYLGIEGGVGGEPMFGSLAVNARAGLGSPYPRPLQAGDAIAVKSAAPSVERRLDLPEQQDTPIRVVLGPQDDEFGAAVEIFLTGEWTMSATSDRMGYRLDGPQISHLHGHNIVSDGTVDGSIQVPGSGQPIVLMPDRGTSGGYPKIATVISADLGRLAQRQPGRPFRFQAVSVEEAQDAYRTMAKLIRSLPDLLRDAQHAIIDLDALLSANVAGTAIDALAAELEHHHHHH”: “not soluble”.

“MGSDKIHHHHHHNDDPGKDPDVVTYDFKNLPADSGAKPTEDQMSAVVATFVDEVALPTYKDMLTKMTAYKNAVDKFIASGSKNDLADACDAWRAVRVPWEQSEAFLFGVADLAQLDPSLDSWPLDKNGIEEIIATGEFSKISGAVDEDAEDGPQNLRGFHTAEKMLFLDGEPRDLETSPFAKNELEYLKLVSERMLSDTQDLYNGWLKGLGTSDVPSSYAEAMKKHDGSAYSIGNVYQAIELMLNGNNGMAGISNEVGSAKITDPVTAWNGSNKDATDPNNPGVLAVESWYSWNSLDDYKNNIVSIKNAYFGGRDLDEESASESSLHALTKMINPTLDSLMVVQIDKTIDAINAIGYPFRNNLGDTEHINTATEACADLTTGLGVVKSKFTN”: the “soluble on expression in E. coli” value is listed as “not soluble”. In the case of “MRQQNGWVLKGGTNIYCRIPGARQTKDLDLYRRDDPTSSTGAAESLVSAMNGYKIGPYIFHVIHPRQSGGVGTVDSERIDVTVIHGINNRLVSFGVDVSGDLEVTGTVEPVTVATSYKVHTEFLPQRFKVYSYPVASQIADKICAMYERHGNTPPGRASTRYHDLYDVALMARELTVSAFDLRSALDTQCRVRNMSLPNHLTIPDESWKDQYPIKARNFGDEQWGLTELDEALRVAGLLINPILNREFKESDRAWNCTALLWE” it was “not soluble”; in that of “MGSDKIHHHHHHMCVKKGESSITSLVSAFGRAYHSEFDSPKIFDDYVAKEFISPKERSDIETNMVQGIHFFNTDIAEQFQDNPKEILKWITQVQLSPTPLARAAYCERVLLHEITLGAKQYVILGAGLDTFSFRHRELENKIEIFEVDHPSTQQFKKERIKEAELEVPNNLHFVSMDFTKGFSYEQLRNEGFEHKKTFFSLLGVSYYLTKEELASLIECLFEMVPEGSSIVFDYPDENLFTEKGLSNRVENMVKMAAVGGEPMKSCYSYAEMEALLEKAGLLIYEHLSPEDINAFYFEGRNDYLKAFETVHYVHAVKK”, “not soluble”. “MNEADYLRLLTRQAEQANDFLSNARKWDRERWVCQRFLEALNVPYRQEDFAAPGEQPPDVLFKGAGFEVFFVLDEGRRLNEEWREELTRRRQAVSLRQLIRREERPQRIAAAELQARLAPTLRKKAHNYSERGIDHGELDLLAFVNLKRAVPDFNTPFPPPTEYLRQGWRSLSMVGPTFARVLFAHSGAPEFLRANLGRSILFDAGVGL”: the “soluble on expression in E. coli” value is reported as “soluble”. In the case of “GSHMRRYIGVMMLTLSPSILAELQLREPSFPDVQHGVLIHKVILGSPAHRAGLRPGDVILAIGEQMVQNAEDVYEAVRTQSQLAVQIRRGRETLTLYVTPEVTEGGGWTMFWV” it was “soluble”; in that of “MSDGETAVIQSLAPGPIDGVSYPLKMVYCGQCSMPPEYCDYSGQTDVCRAWATQNAPELLEGLEISDEPAADGDEKKKQKRGGKGSKTGAAAAQAAASGGKKKGGGPQKVTLQREPRGKKSVTVIKGLATFDIDLKVASKLFAQKFACGSSVTGADEIVIQGDVKDDLLDLIPEKWKQVTDEQIDDLGDKKR”, “soluble”.

The values are drawn from the DeepSol protein solubility set.
